Assay results as given in the DeepSol protein solubility set.

Experiment: soluble on expression in E. coli; label from the status in PepcDB or PDB records

Soluble on expression in E. coli, not soluble:
MGSDKIHHHHHHMAQQKPHDVNEPSRRRLLKGIGALGGALAITGGCPVAHAAKAESSPGTLTPDARQEKQPFYGRHQAGILTPQQASMMLVAFDVLAADKADLERLFRLLTQRIAFLTQGGPAPDTPNPRLPPMDSGILGPWIAPDNLTITVSVGHSLFDERFGLADKAPKKLQPMTRFPNDSLDAALCHGDLLLQICANTQDTVIHALRDVIKHTPDLLSVRWKREGFISDSAARSKGKETPINLLGFKDGTANPASHDSALMDKVVWVTADQDEPAWTVGGSYQAARIIQFHVEFWDRTPLKEQQTIFGRDKHTGAPLGMKNEHDTPDYSKDPNGEVIALDSHIRLANPRTPETQSSLMMRRGYSYSLGVTNAGQLDMGLLFVCYQHDLEKGFLTVQKRLNGEALEEYVKPIGGGYFFVLPGVVDEKHYLGESLLQA
MGSDKIHHHHHHMARILIIRFSALGDVAMTIPVVHSLAVQYPQLEITVLSRAVWQPLFQGLPANVSFIGADLTGKHKGLWGLNTLYSELKAKHFDYVADFHHVLRTKYLCLRFRLANIPVASIYKGRVGKEKLVRRRHKVLENQKSSFRRYADVLEKLGFPVLLNFSSIYGDEKGNFAEIEPVTGAKDNLKWIGIAPFAKHMGKIYPIELQEQVVAHFAADPKVKVFLFGGGKSEQEVFDGWVAKYPTVVSMIGKLNMRTELNLMSHLDVMLSMDSANMHLASLVNIPVISVWGATHPYAGFMGWKQLPVNTVQFDLSCRPCSVYGQKPCWRGDYACLREIKPEQVIAKIEGIIN
MGSDKIHHHHHHMASHNTTHQMKTLCSSCSLRELCLPVGLLPNELSQLDAVIRQSRRLKKGEYLFCVGEAFTSLFAIRSGFFKTTVASQDGRDQVTGFFMSGELIGMDGICSHVHSCDAVALEDSEVCELPFTHIEELGQNIPSLRTHFFRMMSREIVRDQGVMLLLGNMRAEERIAAFLLNLSQRLYSRGFAANDFILRMSREEIGSYLGLKLETVSRTLSKFHQEGLISVEHKHIKILNLQVLKKMVSGCSHAI
MGSDKIHHHHHHMASLDVFHQDAFTTIQLTTAVDKYPFQPTGLGDLNIFEPDPIRTTALAVEQRQGKLVVVPFSERGQEGTQRTTEQREARYFKVPRIMHADTLYANEIQDIRAFGTESELMQVQAEVARRLNGPTGLTSNIEYTWEYHRLAAVQGMLLDADGTVKYNWFDEFGITPPSLVPFNLSAQTPNSLRPIVNGIRRTMARKAQGAFLPTTKIFALCGDLFYDELTNHTDVIRTYLNWSAASELRDDSQGAAFEAFPFAGVTWSNYRGSDDNTTLKIPDDEVHFFPVGAPGVFRVAYAPGESFEWVNTPGKPIYVIPIYDRDRNSFWKMEAYSYPLHICTRPEVLQKGHAGA
MGSDKIHHHHHHMASPTVRRRQLSAILREMRKASGLSLDAVAARLEWSRAKVGHIETGQRKKPSVLEVKALMAEYGVTPEDPRYETVLMLTRQAQARGWWRRYDDLFPGSYIELEAEASEIRTYEAFVVPGLLQTPGYTRLLQQARLDRDPDDVERAVESRRKRQEIFDRTSPPAVYAIIEEHALERLRGTPDVLAEQVAHLLHMAGRNSVTLQVLRTRVGVHAGAMGPFVILDFPEPASPVVYLETYTDGLFLERREEIDQYRSLWDRIRDAALPPDRTVEFLRSLLTL
MGSDKIHHHHHHMATLKRIWLALNPQEAAAWQALLTTAGLAADRQVDYTVGIFEGETLLATGSLSGNIIKEVAVTPATQHENLLAQVIQALLDRLDDDGVTHSFVYTKPTTVKFFLSLGFKQLAATDAVVLLERGYPNLTDYVASLEKQRRPEKPAAAIVMNANPITRGHAYLIETAAKVNPVVYVFVLSAERSLFTADERLALVRKVAARWPNVVVLPTNDYMVSNTTFPSYFLKERADADVAAVQARLDAALFKQAIAPVLGITRRYVGEEPLSPVTAIYNRELAATFGSAIELIVVPRLMIDGDVVSATRVRAAMAQQDWKTVQQLVYPEVYQEIKERSTHGN
MGSDKIHHHHHHMATTESFAQTLAAKQPRLLAAFKHIIAQNHLAHAYLFAGMEGAGQPELAHWIAQRLFCLHINDGEPDGTCEECVRIANGSHPDIVTVAPEGQRIHVDQVRYLKAEFSKSAVEGNRKLFIINDAEKMTASAANSLLKFIEEPSGNVTALLLTTNKQLMLPTIISRTQVIEFPPLNAQALQQTFEQAGIAPNQAQMLRGLTNSVTQAQALLADDWLPQAAQALWRWFDQAVKGDPRSFVAVQVNLVGLAKDADHQLVMLDLIAALFQDLLQLHFEVATTALTFGQYQKELAGLTAEVSDEQLIAATELALTAKRQLASNISFQNVLEGLTLKLWPIFQTNA
MGSDKIHHHHHHMAVECIKDKVTRYPERASYSDEDLVAMLDRNFTCTVSFIDGGIPYAIPMMLASEGKTIYLHGSMKSRIYGILKTGQLIAISLLEINGIVLAKEIKNNSINYVSALIFGRPYEIDDTEKKIEVFRLLTEKLVKGRRDNSIKPSYEDLNGVFVFAVKPETFSMKARTGPPHDTSTDDIWSGVLPIQHTISEAGENAPEYVKSLYGKRIFI
MGSDKIHHHHHHMAVFSQYFGKLNQYKNALTQKVDNYWTLSCFQDVAAINPWLVPGQGRKTGSSIVLKNDVLVELGSPEAGSCSMTLYTNSPHQITDGWITLMGSDITEYTPKKLPFGQVIMVGGEHLTEEDYYYLLQNLNVSEMIEGYMIRSTAESIWCRISKDAAKNGFNFHVLGSVLNWHIKQILPKVKAVEIVFVTTTKEDIEELNQISKEVGEIGRRIKERIWREKGVDIYKCVPGGHCGACEDKTVCDTIRKIGAGR
MGSDKIHHHHHHMAVKVLSIDLGATNGKIYEVELKDRLTVKEIKRFRTEGTFLPGKDREHFVWNLPGFYEEIKGVLEASDAQSVGVDTWGVDFALLDENGRLVSLPYHYRDVRTKGVMKKAFEVVPKDEIFQRTGIQFMEINTLYQLYSMVLSNDPFLKTTKHLLMIPDVFNFWLSGEMVSEYTIASTSQCYSVPDGEWAYDLLEKLSIPTEIFPKVVPPGTILGKCRVKKGINVIATACHDTASAVVAVPLEGEGIYISSGTWFLVGTELERPLLSKEALERNFTNEGGYGKIRFLKNATGMWLLEECNRIWKKDYSEIIESVRNVPGFQAFLDPDREEFLHPGNMPERIRNYLERTGQKILERIGEISRLIFESLAFNCRWIVEQIKELTGKRYGKIHVVGGAVRNDLLMSFIASATGKTVVAGPVDATPIGNALVQLITLGAIANINEARKIVKESFELKTFEPKNPELWSEKYEEWRRYKGMRV
MGSDKIHHHHHHMAVPLPVSARKDTVVPVLMYHDVSNHFHDPFTISPALFAAHMEWLHAAGYRAVTVGEALAGRGATAGKMVVITFDDGYASFLDYVHPLLLQYGFSAAISVIGSHVGTWLERDGRRPMLSWDEYRYLAARRVEVGCHAYHLHAIERLRHASADELAEDLELFQKTMAREMGRRATLLAWPYGIYTSERVQIARQAGFVHILTSNEGYVDDGTDPGAIPRLNIDNRLDLVSFSNYLRGE
MGSDKIHHHHHHMAYVPNPVNIGVVYTENAAVLVDSGLDESVPRKISRLLQKPPLYLINTHSHADHCGGNAFLKKRFSTRVFAPKMEKEIIENTVFEPFYLYGAYPPNELRNKFLMAEPSAVDEVIEEGTITIESVDLEIVPLSGHSTNQIGVAVDGVLFCADAVFSEETLRKHRIFVIYNVEKFLETLDFLEKTSYSYYVPSHGEVTRDIGELVEKNRKAVENIINAVLEITVNPLSTDELMKQLFDRFEITLENLTQYILYRSTVHAYLSFLLDRKEIEREFRNNVLVWRRC
MGSDKIHHHHHHMDAILMSLMTALNEHLLINVYQRDTDDFYTGYVQVLGHDAVVLGTYNDSGIADGCALIAFSAIDQVEFAGDDLDSMNFRINLAQAQHFLTLQGQEKPLQFDATQNLIQQLATQAKANGQMVMVVVADDDAYLEGQVTAVAEDRFSMAIFNKFNYTDVRALQVDFSDILVMEFHGLDLKLETELVWQRDHLKHVATKLYQNDGQLAGVFQNALANNRLISVVPKGPEDQFFVGRVKAVNDRVVVLSLKDMAGQFGGYILLTLPSIQNVATASDYLQTISFYEKWDQTHHFSQQPVLNADREFDPNDDLIRTIISEAAGFERVVRIKVADSDEHFLGYPENVGETDFDLNLVGPDDGETAQIRYGQIREIAFGHIFAYLQEAQLKNAGR
MGSDKIHHHHHHMDALEIHRFLKGKIRTALPVEKVDRETLSLLYTPGVADVARACAEDPEKTYVYTSRWNTVAVVSDGSAVLGLGNIGPYGALPVMEGKAFLFKAFADIDAFPICLSESEEEKIISIVKSLEPSFGGINLEDIGAPKCFRILQRLSEEMNIPVFHDDQQGTAVVVSAAFLNALKLTEKKIEEVKVVVNGIGAAGYNIVKFLLDLGVKNVVAVDRKGILNENDPETCLNEYHLEIARITNPERLSGDLETALEGADFFIGVSRGNILKPEWIKKMSRKPVIFALANPVPEIDPELAREAGAFIVATGRSDHPNQVNNLLAFPGIMKGAVEKRSKITKNMLLSAVEAIARSCEPEPERIIPEAFDMKVHLNVYTAVKGSA
MGSDKIHHHHHHMDCNGSGGSSDDDKPLHHDGGVRMKFFRSVGEVFGYSPFRSLAQHARMCGRAVGLLQQQFEALRRGNYEEVEELREEIDELEHHADQIKEEIRGNVTKSLMLPVDRHDLLEFLKVQDDILNNCEHVGHMVTFRKVSAPEDVWDEFLVLLSKLMEIVNNYEEMVERIMQLVETSFSKKEVNRALEYVPIIEQLEHECDLIQIGLHTKLFNLENSNPLDIQLMVTWVVHLGYVANAAARASDRFRIMILGR
MGSDKIHHHHHHMDEFDYVRRKLIERILHLTEKQPVVRPLPGLTVGRRESPTEPSTYILPPSICIAVQGAKRVLIGEEYYVYDVENFLLNSFDVPVVAQVIEASKEKPYIGMTWEIDMEILMEIVVEQKLNTRPITSSRGTSLGKVTHQLLDAFRRMLELLDEPEHISALLPVIKKEIIYRLLVSEQGPRLIQIALSGKNDVITALNYLKEHFNESVNMKRLAEMVGMSVSTFYQNFKILTGMTPLQYQKKLRLCEARKLLMAGSDVTTAAYQVGYESLSQFSREYKRFFGVSPSQDAKKLKEEPYTRILY
MGSDKIHHHHHHMDEQVTILHTNDIHSHFENWPRIQRYLLTEREQRRQSGSHVITVDLGDAVDRAHPLSEATQGQANVALLNAIGYDAVTIGNNEGLGLTHAALNRLYDRANFDVVLDNLTDTATQRPPQWALPAKIITTARGTRVLLLAFTAPFTLTYPLNGWTPASVKTRFPELLRQYAGQYDVLIVMSHLGINVDRWLAKQFPVIDVVIGSHTHHLLVNGELKNGVLIAAAGKYGEYIGRIELTIDHQHHVKAAAAHTVATASLPIVAGDETLITGWEQQGETLLTRQVVAKVPTQLRPHWHHASDLTALGLAAITDYAKTDLGMLNGGLFMRDLPAGMVNRNDLHTMLPHAMHVIRVTLSGEALWRLVYEMELVRPFLNKFPIKGMGFRGQVFGYIQYQGLTWKTGQHTLLVNGQPVNRQQTYQIALLDHDLFIPFFPTINISGRTEILFEAMLRTVVGDYLMRRWPVK
MGSDKIHHHHHHMDFTEYQEEIIEDVKSCLESLQVQPILFMGAGISQRYIKAPDWEGLLKQLAEICPLIKRHYGYYSQTKGDNKPLIASDFCDFYAEWAWDDGKDRYPETYFEGTTPKDIYIKHEIASILNELSNSVDFSNMEYTEEVQKLRKVKPHAIITTNYDDTLEKIFDNYQAIVGHNVVKVNYSSYGEIMKIHGSSHEVESIVITNEDYVDFYKRKKYISAKLLTYFAEHPLFFFGYSINDENIKAILSDIDEIIAPNNALIPNIYLVSFSKDCEATGSHQKELLIGVGENKSIRIKVIYANDFGWIFDALSSNTPEISVNPKLVRAFLARTYTFASESLVKQELPYDFEMFRDIAEHDDALAKMYGIAELNNGQALNASFPYTMSDLARILDMGSWHYVNQEFEKLRKLTDFNIKASDNNYHVFIKSGKSGVGKYSSEALDLLRKLINGEQFELNP
